The supplement of paper PMC9732359
± gives the uncertainty stated by the source.

assay: protein stability index of a GFP-peptide fusion (yeast GPS) (PSI 1-4); higher = more stable; sorted into four equal gates, so the index is relative within each strain; details: doa10∆
Summary of the method: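 Tiled 17-residue peptides from yeast proteins were fused downstream of GFP on a plasmid that also expresses Cherry, and the pooled library was carried in yeast. Mid-log cultures grown in leucine-free medium were sorted into four equal gates by GFP/Cherry fluorescence ratio. Plasmids from each gate were PCR-amplified and Illumina-sequenced, and reads were assigned to strains by barcodes. Each peptide's protein stability index is the sum, over gates, of the gate's read frequency multiplied by its gate number.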

Sequence | protein stability index
AYSNTNTNTENENRNTG [SNF11] | 3.1 ± 0.14
CDILVATPGRLIDSLEN [PRP28] | 3.54 ± 0.12
CEQQPSQEREFSLLVKA [SIN4] | 3.01 ± 0.077

same assay, conditions: pdr5∆

Sequence | protein stability index
AHVNKVTEETTKQIQSV [SIR4] | 2.89 ± 0.078
AIIRLHPSIYTQVFNIL [POP1] | 1.22 ± 0.047
AIMSKSSLEELLLKDQQ [ECM29] | 2.93 ± 0.073
AINPGRVAASFSQEALQ [FAS1] | 2.53 ± 0.15
AINVFPEGYKAKSISTS [RPO31] | 1.8 ± 0.057
AIPNPEDVVAISSRTYG [RPS0B] | 3.07 ± 0.055
AKAKRRHTTGTGRMRYL [RPL37A] | 3.22 ± 0.083
AKDKEIYNKMIGVLNNS [RPN13] | 2.94 ± 0.1
AKINEVYNNSKDEYLAQ [NSL1] | 3.06 ± 0.043
AKKHKLNAITLDGDRAD [SMC3] | 2.66 ± 0.28
AKKRKTLILIQNPENLL [SIR3] | 2.54 ± 0.099
AKKTSTSVDGKKRSKVR [HTB2] | 2.98 ± 0.23
AKLNHLKKLEKFMELER [SWI3] | 2.83 ± 0.069
AKPDNLANFSNEVAMNN [SWP82] | 3.21 ± 0.078
AKRDYIISRLNADFQKP [FAS1] | 3.07 ± 0.085
AKYHAKLNKKLQHLRSR [SRP68] | 3.44 ± 0.078
ALERYDEAEGRFEVINN [SMC1] | 1.12 ± 0.17
ALFLSKINRPPVSVSRI [RPL18A] | 1.63 ± 0.076
ALGQDTEKMEEQLDLLS [MED11] | 3.09 ± 0.082
ALHYLVPFIIAAMVIMH [COB] | 1.29 ± 0.061
ALIKFMEYHISNTDETK [FAS2] | 2.5 ± 0.077
ALLTVLKALSHHYNPKT [BRR2] | 2.25 ± 0.051
ALPDAVTIIEPKEEEPI [RPS3] | 2.99 ± 0.065
ALPHVEINQVSLALVIR [RGR1] | 3 ± 0.22

Sequence | protein stability index
ALRRRVGPSEQNFAEED [REC8] | 3.51 ± 0.15
ALVAGIERYPSKVTKKH [RPL27B] | 1.99 ± 0.063
ALYRVNDLRDMILNYNP [UBP6] | 2.73 ± 0.19
AMHYSSNIELAFSSVEH [COB] | 1.9 ± 0.06
AMIALSMILIQQTEKLN [RPN2] | 1.35 ± 0.066
ANAVQNNNGNSAASKKK [SRP21] | 3.29 ± 0.11
ANFKTSKKYQLADWRIR [RRP6] | 3.05 ± 0.096
ANLRVLNSYWVNQDSTY [RPL15A] | 2.23 ± 0.067
ANNNGSNLQRAQNVPMN [GAL11] | 3.54 ± 0.12
ANNNINSASSAPTPAAP [SWI1] | 2.88 ± 0.077
ANSESGHYQAFIRDELD [UBP6] | 2.76 ± 0.11
ANSQIQAYEEIISSNEN [YIL149C/MLP2] | 3.46 ± 0.17
ANSSITPAFGSNNTGNT [YJL041W/NSP1] | 2.86 ± 0.049
ANTSNNLFGATANANKP [YJL041W/NSP1] | 3.27 ± 0.044
ANVEILAVEDKPSPIDS [CSL4] | 2.97 ± 0.13
ANVVDITNDWEQPCVDI [YJR042W/NUP85] | 3.41 ± 0.062
ANYIKERTKNAQFIVIS [SMC4] | 1.5 ± 0.067
APEIPEDLYYLIKKAVS [RPS13] | 2.92 ± 0.096
APSIGRWYQLIATGCKD [YGL100W/SEH1] | 1.65 ± 0.068
AQAQAQAQAQAQAQAQA [GAL11] | 3.23 ± 0.035
AQAWINLGEYYAQIGDK [RPN7] | 2.77 ± 0.1
AQDEVFSLAFSPNRYWL [ASC1] | 2.75 ± 0.17
AQDFINAYASFLQRQGK [RPS19A] | 3.07 ± 0.064
AQDFKTDLRFQSSAIGA [HHT1] | 1.41 ± 0.14

Sequence | protein stability index
AQFIVISLRNNMFELAQ [SMC4] | 1.67 ± 0.082
AQFVSNKQYHQANSNLT [NUT1] | 3.21 ± 0.076
AQLTHSLRRIRDEMSKA [MED8] | 2.35 ± 0.07
AQYGIKALPIRRDDEVL [RPL26A] | 3.32 ± 0.17
ARAPKYASKAVPHYNRL [RPL25] | 3 ± 0.065
ARENAPSIIFIDEVDSI [RPT3] | 2.46 ± 0.11
ARKHKLKTLVQGPRSYF [RPS27A] | 3.34 ± 0.19
ARKYLQTRWGLPSGRQD [FAS2] | 2.09 ± 0.12
ARLPPRATNCRKRKCGH [RPL40A] | 3.3 ± 0.15
ARNLYIIAVKGSGSRLN [RPL23A] | 1.19 ± 0.044
ARTAANSIYCPTQTVAE [RPN6] | 1.76 ± 0.067
ASDMSDEDIITIFKYLT [CDC53] | 3.09 ± 0.13
ASELDESKDSIQDLIVK [SMC3] | 3.04 ± 0.12
ASEVATHSKLFADKKRD [PRP8] | 2.69 ± 0.073
ASEYIETLGLKYLGLKP [FAS1] | 3.35 ± 0.093
ASFFFMVMFMHMAKGLY [COB] | 1.58 ± 0.038
ASGFGFGGSQPNSGTAT [YGR119C/NUP57] | 2.74 ± 0.086
ASGSINRKVLQALEKIG [RPS19A] | 2 ± 0.12
ASHNEKDQDSQIELSCN [SRP72] | 2.41 ± 0.079
ASIGQAAEQQSKAFKES [SRP54] | 3.33 ± 0.17
ASKKFGKICLILTRLNG [SSN2] | 2.14 ± 0.27
ASKSGKLTQKLVTAGVA [CYT1] | 1.83 ± 0.057
ASLHSKELTRIPGEEVE [MED4] | 3.29 ± 0.18
ASLNALKESIKNSTSSM [RPN1] | 3.25 ± 0.098

Sequence | protein stability index
ASLQQQQQQDLQQQQQV [SNF6] | 2.7 ± 0.17
ASRHGQKGTIGITYRRE [RPB2] | 1.84 ± 0.051
ASSKAVTRGISVLKDSD [PRE1] | 2.76 ± 0.05
ASSSAKLIEKKSAYANT [SMC2] | 2.55 ± 0.055
ASSWAKKIAQRERRAAL [RPL14A] | 3.32 ± 0.14
ATAIGKGSVAAKTFLEK [PRE8] | 1.28 ± 0.17
ATDVEARAVQDNGESAF [RPL13A] | 2.99 ± 0.088
ATFSVSQASSDLGETFR [CSL4] | 2.64 ± 0.064
ATLYIPKALRFDRLVAG [FAS2] | 1.23 ± 0.068
ATPGRLIDSLENHLLVM [PRP28] | 2.37 ± 0.05
ATPQDAQFYLGKRIAYV [RPL33A] | 2.66 ± 0.07
ATQSGGVRPFGVSLLIA [PRE8] | 1.62 ± 0.071
ATSFSRKKARTFDSSWN [FAS2] | 2.99 ± 0.18
ATTSVMMVNNQTMQLIK [SRB6] | 2.1 ± 0.17
AVAASSTKTGTPSDLSE [POP1] | 3.26 ± 0.077
AVARLKSMNKSAINQYN [SNF2] | 2.33 ± 0.076
AVCSTATVVSTNHSAAA [PGD1] | 3.02 ± 0.077
AVDLEHHDYRSYYGIVC [RRP6] | 2.77 ± 0.049
AVEFESVPLRKGDRALL [BRR2] | 3.45 ± 0.14
AVTHNLYYDEDINVESL [PUP2] | 3.25 ± 0.088
AVVQTVKGLLNTYKRLV [YJL039C/NUP192] | 2.37 ± 0.085
AYIKLLDQTKDTRITHL [SNF2] | 3.03 ± 0.072
AYILAAQKTSFEYEGVQ [RPN1] | 2.35 ± 0.079
AYPAAREQFLNAQDIDH [FAS1] | 3.15 ± 0.11
